In patent publication US20090004211A1, “METHOD FOR EFFECTING LOCALIZED, NON-SYSTEMIC AND SYSTEMIC, IMMUNOGENIC TREATMENT OF CANCER USING ERP57 TRANSLOCATION” (priority 2006, published 2009):
“Also recorded” adds a separate entry of the source.

Legend:
CT26 tumor cells [1] = experiment: Anti-tumor vaccination: treated dying CT26 cells injected s.c., challenge with live tumor cells in opposite flank; assay type: in vivo, BALB/c mice; conditions: for restoration of immunogenicity defect by recombinant protein, anti-tumor vaccination: siRNA-transfected, mitoxantrone-treated CT26 cells
ERP57 [2] = experiment: Fluorescence detection of cell surface ERP57 (cytofluorometry); assay type: cell-based, mouse
Experimental: CT26 cells (on a glass slide or in 12-well plates) were first washed with FACS buffer (1×PBS, 5% fetus bovine serum, and 0.1% sodium azide) and then incubated with rabbit anti-mouse CRT antibody (1:100, Stressgen), or rabbit anti-mouse ERP57 antibody (abcam) in FACS buffer at 4° C. for 30 min. Cells reacted with anti-rabbit IgG (H+L) Alexa fluor 488-conjugates (1:500) in FACS buffer at 4° C. for 30 min. After washing three times with FACS buffer, surface CRT and ERP57 was detected by cytofluorometric analysis on a FACS Vantage. In some experiments, cells were fixed with 4% paraformaldehyde, counterstained with Hoechst (2 μM; Sigma), followed by fluorescence microscopic assessment.

CT26 cells [3] = experiment: Phagocytosis assay: uptake of treated tumor cells by dendritic cells; assay type: cell-based, mouse; conditions: for reversal of siRNA-induced defect at the level of phagocytosis by DC: CRT-specific or ERP57 specific siRNA, recombinant protein added
Experimental: BM cells were flushed from the tibias and femurs of BALB/c mice with culture medium composed of RPMA 1640 medium supplemented with 10% heat-inactivated FBS, sodium pyruvate, […] 2-ME. 10 mM HEPES (pH 7.4), and penicillin/streptomycin. After one centrifugation, BM cells were resuspended in Tris-ammonium chloride for 2 min to lyse RBC. After one more centrifugation, BM cells (1×10^6 cells/ml) were cultured in medium supplemented with 100 ng/ml recombinant mouse FLT3 ligand in 6-well plates. […] In 12-well plates, […] adherent CT26 cells were labeled with Celltracker Orange and then incubated with drugs. […] Alternatively CT26 cells were coated with 3 μg/10^6 cells of rCRT on ice for 30 minutes and washed twice prior to addition to dendritic cells. Cells were then harvested, washed three times with medium supplemented with FBS and cocultured with immature DC for 2 hours at a ratio of 1:1 and 1:5. At the end of the incubation, cells were harvested with Versene, pooled with non-adherent cells present in the supernatant, washed and stained with CD11c-FITC antibody. Phagocytosis was assessed by FACS analysis of double positive cells. Phagocytic indexes refer to the ratio between values obtained at […] of co-incubation between DC and tumor cells. Trypsinized CT26 cells were enucleated as described. Briefly, cells were treated in 2 ml of complete RPMI medium containing cytochalasin B (10 μg/ml; Sigma) and DNase I (80 U/ml; Sigma). Cell suspension was adjusted to a final concentration of 5×10^6/ml and incubated at 37° C. for 45 minutes before being layered onto a previously prepared discontinuous Ficoll density gradient (3 ml of 100%, in 1 ml of 90% and 3 ml of 55% Ficoll Paque layer containing 5 μg/ml cytochalasin B and 40 U/ml DNase I; gradients were prepared in ultracentrifuge tubes and pre-equilibrated at 37° C. in a CO2 incubator overnight). Gradients containing cell suspensions were centrifugated in a prewarmed SW41 Beckman rotor at 25 000 rpm for 20 minutes at 30° C. The cytoplasts-enriched fraction was collected from the interface between 90 and 100% Ficoll layers, washed in complete RPMI 1640 medium, and incubated at 37° C. The cells were incubated with mitoxantrone (MTX), calyculin (CA), salubrinal (Sal) and toutomycin (TA) for the period of time indicated in the experiment. […] Alternatively cythoplasts were cocultured with immature DC for 2 hours at a ratio of 1:1 and 1:5. At the end of the incubation, cells were harvested with versene, pooled with non-adherent cells present in the supernatant, washed and stained with CD11c-FITC antibody. Phagocytosis was assessed by FACS analysis of double positive cells.

CT26 tumors = experiment: Treatment of established CT26 tumors by single intratumoral injection; assay type: in vivo, BALB/c mice; conditions: for therapeutic effect of single intratumoral injection: agent alone
Experimental: (§1) All animals were maintained in specific pathogen-free conditions and all experiments followed the FELASA guidelines. 3×10^6 treated CT26 cells were inoculated s.c. in […] of PBS into BALB/c six-week-old female mice, into the lower flank, while 5×10^5 untreated control cells were inoculated into the contralateral flank. For the tumorigenicity assay, 3×10^6 treated or untreated CT26 cells were injected s.c. into nu/nu mice. To assess the specificity of the immune response against CT26, injections of either 5×10^5 or 5×10^6 of CT26 were made (for the mice immunized in a standard protocol or vaccination protocol, respectively). Tumors were evaluated weekly, using a caliper. In a series of experiments, BALB/c (wild type or nu/nu) carrying palpable CT26 tumors (implanted 14 days before for wild type or 7 days before for nu/nu mice by injection of […] tumor cells) received a single intratumoral injection of […] PBS containing the same concentration of anti-cancer agents and PP1/GADD34 inhibitors as those used in vitro, as well as rCRT ([…]). For the assessment of local immune response, 3×10^5 cells were injected in 50 μl into the footpad of mice. Five days later, mice were sacrificed and the draining lymph nodes were harvested. 1×10^5 lymph node cells were cultured for 4 days alone or with 1×10^4 CT26 cells killed by a freeze-thaw cycle in 200 μl in round-bottom 96-well plates. IFN-γ was determined by ELISA.

ERP57 [4] = experiment: Fluorescence detection of cell surface ERP57 (cytofluorometry); assay type: cell-based, mouse; conditions: murine MCA205, B16F10, J558; human HeLa, A549, HCT116
CRT = experiment: Fluorescence detection of cell surface CRT (cytofluorometry); conditions: for time after treatment at which CRT exposure is detectable: intact cells; for reversal of siRNA-induced defect at the level of CRT expression: CRT-specific or ERP57 specific siRNA, recombinant protein added
Experimental: CT26 cells (on a glass slide or in 12-well plates) were first washed with FACS buffer (1×PBS, 5% fetus bovine serum, and 0.1% sodium azide) and then incubated with rabbit anti-mouse CRT antibody (1:100, Stressgen), or rabbit anti-mouse ERP57 antibody (abcam) in FACS buffer at 4° C. for 30 min. […] After washing three times with FACS buffer, surface CRT and ERP57 was detected by cytofluorometric analysis on a FACS Vantage. In some experiments, cells were fixed with 4% paraformaldehyde, counterstained with Hoechst (2 μM; Sigma), followed by fluorescence microscopic assessment.
Trypsinized CT26 cells were enucleated as described. Briefly, cells were treated in 2 ml of complete RPMI medium containing cytochalasin B (10 μg/ml; Sigma) and DNase I (80 U/ml; Sigma). […] Gradients containing cell suspensions were centrifugated in a prewarmed SW41 Beckman rotor at 25 000 rpm for 20 minutes at 30° C. […] Then the cell surface CRT was detected (see materials and methods) and the viability was determined by with propidium iodine staining (2 μg/ml, Sigma) for 5 min followed by cytofluorometric analysis.

CT26 cells [5] = tested on: CT26 cells
CT26 tumor cells [6] = experiment: Local immune response: tumor cells injected into footpad, IFN-γ secretion by draining lymph node cells (ELISA); assay type: in vivo, Balb/c mice; conditions: for restoration of immunogenicity defect by recombinant protein, interferon-γ production: siRNA-transfected, mitoxantrone-treated CT26 cells
Experimental: as §1

sperm-egg fusion = experiment: Sperm-egg fusion assay; assay type: cell-based, ICR mice
Experimental: Gamete Isolation. Using mature, cumulus-free oocytes from superovulated 6-week-old to 8-week-old ICR female mice, eggs were denuded from the zona pellucida and loaded with DAPI. Sperms were collected from each cauda epididymis and vas deferens of 10- to 12-week-old ICR males. […] […] All the experiments were performed according to the animal care and use protocols approved by French and European Union Ethical Committee.
Sperm-Egg Fusion Assay. […] After the incubation, the sperms or eggs were washed. Sperms were added at a final concentration of 1-3×10^5 sperm/ml and coincubated with gamete for 40 min at 37° C. and 5% CO2. The oocytes were then washed to release loosely bound sperms and mounted onto microscope slides. Alternatively, non-capacitated sperms were incubated with recombinant CRT or ERP57, 3 μg/10^5 sperm, for 30 min 37° C. and 5% CO2, followed by three washes with PBS. Sperm-egg fusion scored by the fluorescent labeling of sperm nuclei by DAPI transferred from preloaded eggs. Fertilization rote (FR) is the percentage of oocytes with at least one fused sperm, and Fertilization index (FI) is the mean number of fused sperm per egg. Both the FR and FI are expressed of the control treatment.

DC = DC maturation ex vivo; assay type: cell-based; conditions: protein alone, large range of concentrations
[7] = immunocompetent BALB/c mice, 14-day-old CT26 tumors

Molecule: O=C1c2c(O)ccc(O)c2C(=O)c2c(NCCNCCO)ccc(NCCNCCO)c21 [mitoxantrone]
- immunogenicity of cell death (protection against tumor growth on rechallenge) (CT26 tumor cells [1]; CT26 cells treated in vitro with agent alone, immunocompetent BALB/c mice): elicited immunogenic cell death
- time to ERP57 exposure in enucleated cells (ERP57 [2]; cytoplasts): ≤ 1 h
- time after treatment at which tumor cells are phagocytosed by DC (CT26 cells [3]; before apoptotic changes): within a few hours after treatment
- uptake of treated cytoplasts by DC (CT26 cells [3]; enucleated cells (cytoplasts)): as efficiently as intact cells
- therapeutic effect of single intratumoral injection (CT26 tumors; [7]): permanent regression in some but not all cases
- therapeutic effect of single intratumoral injection (CT26 tumors; immunodeficient nu/nu mice): no cure
- ERP57 exposure on panel of tumor cell lines (ERP57 [4]): induced
- time to CRT exposure in enucleated cells (CRT; cytoplasts): ≤ 1 h
- time after treatment at which CRT exposure is detectable (CRT): 1 h
- CRT exposure on panel of tumor cell lines (CRT; murine MCA205, B16F10, J558, human HeLa, A549, HCT116): induced

Molecule: peptide inhibitor: protein transduction domain-5 (RRQRRTSKLMKR) fused to the inhibitory sequence of the complex PP1/GADD34 (LKARKVRFSEKV) (RRQRRTSKLMKRLKARKVRFSEKV)
- ERP57 exposure at cell surface (ERP57 [2]; CT26 cells, agent alone): increase greatly and quickly
- time after treatment at which ERP57 exposure is detectable (ERP57 [2]; intact cells): 1 h
- toxic effect (CT26 cells [5]; 24 h of treatment): no toxic effect
- percentage of dead cells positive for DAPI and Annexin V (CT26 cells [5]; after 24 h of treatment): did not increase the percentage of dead cells
- CRT exposure at cell surface (CRT; CT26 cells, agent alone): increase greatly and quickly
- time after treatment at which CRT exposure is detectable (CRT): 1 h

B1: rERP57: recombinant ERP57 protein (protein)
chain: SDVLELTDENFESRVSDTGSAGLMLVEFFAPWCGHCKRLAPEYEAAATRLKGIVPLAKVDCTANTNTCNKYGVSGYPTLKIFRDGEEAGAYDGPRTADGIVSHLKKQAGPASVPLRTEEEFKKFISDKDASVVGFFRDLFSDGHSEFLKAASNLRDNYRFAHTNIESLVKEYDDNGEGITIFRPLHLANKFEDKTVAYTEKKMTSGKIKKFIQDSIFGLCPHMTEDNKDLIQGKDLLTAYYDVDYEKNAKGSNYWRNRVMMVAKKFLDAGHKLNFAVASRKTFSHELSDFGLESTTGEVPVVAIRTAKGEKFVMQEEFSRDGKALEQFLQEYFDGNLKRYLKSEPIPESNEGPVKVVVAENFDDIVNEEDKDVLIEFYAPWCGHCKNLEPKYKELGEKLSKDPNIVIAKMDATANDVPSPYEVKGFPTIYFSPANKKLTPKKYEGGRELNDFISYLQREATNPPIIQEEKPKKKKKAQEDL
- restoration of immunogenicity defect by recombinant protein, anti-tumor vaccination (CT26 tumor cells [1]): not restored
- restoration of immunogenicity defect by recombinant protein, anti-tumor vaccination (CT26 tumor cells [1]; listed as recombinant ERP57): did not restore the protection against tumors
- reversal of siRNA-induced defect at the level of phagocytosis by DC (CT26 cells [3]): did not reverse the defect
- restoration of immunogenicity defect by recombinant protein, interferon-γ production (CT26 tumor cells [6]): not restored
- restoration of immunogenicity defect by recombinant protein, interferon-γ production (CT26 tumor cells [6]; listed as recombinant ERP57): did not restore
- fertilization rate and index (sperm-egg fusion; non-capacitated sperm with recombinant protein): no significant effect
- DC maturation ex vivo (DC): could not promote DC maturation
- reversal of siRNA-induced defect at the level of CRT expression (CRT): did not reverse the defect

B2: rCRT: recombinant CRT (calreticulin) protein, which binds to the surface of the cells (protein)
chain: DPAIYFKEQFLDGDAWTNRWVESKHKSDFGKFVLSSGKFYGDLEKDKGLQTSQDARFYALSAKFEPFSNKGQTLVVQFTVKHEQNIDCGGGYVKLFPSGLDQKDMHGDSEYNIMFGPDICGPGTKKVHVIFNYKGKNVLINKDIRCKDDEFTHLYTLIVRPDNTYEVKIDNSQVESGSLEDDWDFLPPKKIKDPDAAKPEDWDERAKIDDPTDSKPEDWDKPEHIPDPDAKKPEDWDEEMDGEWEPPVIQNPEYKGEWKPRQIDNPDYKGTWIHPEIDNPEYSPDANIYAYDSFAVLGLDLWQVKSGTIFDNFLITNDEAYAEEFGNETWGVTKAAEKQMKDKQDEEQRLKEEEEDKKRKEEEEAEDKEDDDDRDEDEDEEDEKEEDEEESPGQAKDEL
- anti-tumor immune response to etoposide-treated cells coated with protein (CT26 tumor cells [1]; etoposide-treated cells): elicited a vigorous anti-tumor immune response
- anti-cancer immune response, protein absorbed to cells without prior cell death inducer (CT26 tumor cells [1]; live cells, no cell death inducer): failed to elicit an anti-cancer immune response
- restoration of immunogenicity defect by recombinant protein, anti-tumor vaccination (CT26 tumor cells [1]): this defect was restored; also recorded: restores the protection against tumors
- reversal of siRNA-induced defect at the level of phagocytosis by DC (CT26 cells [3]): could reverse the defect; also recorded: restores phagocytosis
- immunogenicity of mitomycin C-treated cells with protein absorbed to plasma membrane (CT26 tumor cells [6]; mitomycin C-treated cells): greatly enhanced the immunogenicity
- restoration of immunogenicity defect by recombinant protein, interferon-γ production (CT26 tumor cells [6]): this defect was restored
- therapeutic effect of single intratumoral injection (CT26 tumors; [7]): no major therapeutic effect
- therapeutic effect of single intratumoral injection (CT26 tumors; immunodeficient nu/nu mice): no major therapeutic effect
- effect of injection into a distant site on antitumoral effects of intratumorally injected etoposide (CT26 tumors; contralateral subcutaneous injection): did not ameliorate the antitumoral effects
- therapeutic effect of intratumoral injection combined with etoposide or mitomycin C (CT26 tumors; immunocompetent animals): able to cause tumor regression
- therapeutic effect of intratumoral injection combined with etoposide or mitomycin C (CT26 tumors; immunodeficient (athymic) animals): not in immunodeficient
- sperm-egg fusion, recombinant protein absorbed to sperm without prior capacitation (sperm-egg fusion; non-capacitated sperm): restores very efficiently the fusion
- DC maturation ex vivo (DC): could not promote DC maturation
- reversal of siRNA-induced defect at the level of CRT expression (CRT): could reverse the defect
